94 variants from the supplement of paper PMC10567573 can be followed below.

First the molecules themselves.
B1: FAM46D (parent)
chain: FQEAMTHLQHKLICTRKPEEIRGG
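Note: lentivirally expressed fusions sorted by FACS into six bins by GFP to DsRed ratio, PSI derived from sequencing read proportions per bin multiplied by bin number.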

This data set covers variants of B1. Kind of data set: protein stability index of a GFP-peptide fusion (GPS, HEK-293T) (PSI 1-6); higher = more stable. The following applies: c terminus: a fixed tail appended.
For the variant FQGAMTHLQHKLICTRKPEEIRGG [E3G], the protein stability index stood at 2.98.

Regarding FQLAMTHLQHKLICTRKPEEIRGG [E3L], the protein stability index was determined as 1.9.

Turning to FQMAMTHLQHKLICTRKPEEIRGG [E3M], the protein stability index is 1.62.

Turning to FQQAMTHLQHKLICTRKPEEIRGG [E3Q], the protein stability index was 2.52.

For FQIAMTHLQHKLICTRKPEEIRGG [E3I], the protein stability index is 2.22.

As to FQAAMTHLQHKLICTRKPEEIRGG [E3A], the protein stability index was found to be 1.82.

On to FQTAMTHLQHKLICTRKPEEIRGG [E3T], for which the protein stability index was 2.54.

As to FQEAMTHLQHKLICTRKPEYIRGG [E20Y], the protein stability index came to 2.34.

As to FQEAMTHLQHKLICTRKPEVIRGG [E20V], the protein stability index turned out to be 2.38.

For the variant FQEAMTHLQHKLICTRKPEMIRGG [E20M], the protein stability index came to 2.03.

FQEAMTHLQHKLICTRKPEIIRGG [E20I]: the protein stability index worked out at 1.77.

Regarding FQEAMTHLQHKLICTRKPEFIRGG [E20F], the protein stability index turned out to be 2.38.

As to FQEAMTHLQHKLICTRKPESIRGG [E20S], the protein stability index stood at 2.33.

Consider FQEAMTHLQHKLICTRKPEEIYGG [R22Y], for which the protein stability index was found to be 1.91.

In the case of FQEAMTHLQHKLICTRKPEEIMGG [R22M], the protein stability index stood at 2.39.

For the variant FQEAMTHLQHKLICTRKPEEIPGG [R22P], the protein stability index turned out to be 2.51.

As to FQEAMTHLQHKLICTRKPEEIEGG [R22E], the protein stability index was 3.29.

For the variant FQEAMTHLQHKLICTRKPEEIHGG [R22H], the protein stability index is 3.14.

As to FQEAMTHLQHKLICTRKPEEINGG [R22N], the protein stability index turned out to be 2.93.

As to FQEAMTHLQHKLICTRKPEEIVGG [R22V], the protein stability index is 3.04.

As to FQEAMTHLQHKLICTRKPEEITGG [R22T], the protein stability index is 2.96.

Turning to FQEAMTHLQHKLICTRKPEEIGGG [R22G], the protein stability index was 2.85.

Consider FQEAMTHLQHKLICTRKPEEIDGG [R22D], for which the protein stability index turned out to be 3.3.

As for FQEAMTHLQHKLICTRKPEEILGG [R22L], the protein stability index was 2.7.

On to FQEAMTHLQHKLICTRKPEEIWGG [R22W], for which the protein stability index was determined as 1.41.

For the variant FQEAMTHLQHKLICTRKPEEIAGG [R22A], the protein stability index is 2.85.

With FQEAFTHLQHKLICTRKPEEIRGG [M5F], the protein stability index is 1.93.

Consider FQEANTHLQHKLICTRKPEEIRGG [M5N], for which the protein stability index came to 3.53.

For FQEATTHLQHKLICTRKPEEIRGG [M5T], the protein stability index came to 3.12.

For the variant FQEAATHLQHKLICTRKPEEIRGG [M5A], the protein stability index worked out at 3.21.

Regarding FQEAPTHLQHKLICTRKPEEIRGG [M5P], the protein stability index was 3.37.

Consider FQEAYTHLQHKLICTRKPEEIRGG [M5Y], for which the protein stability index was determined as 2.16.

As to FQEASTHLQHKLICTRKPEEIRGG [M5S], the protein stability index was 3.67.

FQEADTHLQHKLICTRKPEEIRGG [M5D]: the protein stability index came to 3.44.

In the case of FQEACTHLQHKLICTRKPEEIRGG [M5C], the protein stability index was found to be 3.35.

As to FQEAMTHLQHKLICTRKPEEIRYG [G23Y], the protein stability index came to 2.41.

On to FQEAMTHLQHKLICTRKPEEIRIG [G23I], for which the protein stability index was determined as 2.6.

FQEAMTHLQHKLICTRKPEEIRSG [G23S]: the protein stability index was 2.71.

Take FQEAMTHLQHKLICTRKPEEIRFG [G23F]: the protein stability index was 2.02.

Turning to FQEAMTHLQHKLICTRKPEEIRPG [G23P], the protein stability index was 2.87.

For the variant FQEAMTHLQHKLICTRKPEEIRTG [G23T], the protein stability index was 2.14.

Consider FQEAMTHLQHKLICTRKPEEIREG [G23E], for which the protein stability index worked out at 2.16.

On to FQEAMTHLQHKLICTRKPEEIRHG [G23H], for which the protein stability index was found to be 2.61.

For the variant FQEAMTHLQHKLICTRKPEEIRLG [G23L], the protein stability index was 2.66.

For FQEAMTHLQHKLICDRKPEEIRGG [T15D], the protein stability index was found to be 3.01.

Regarding FQEAMTHLQHKLICPRKPEEIRGG [T15P], the protein stability index was determined as 3.04.

Turning to FQEAMTHLQHKLICHRKPEEIRGG [T15H], the protein stability index was 2.22.

Take FQEAMTHLQHKLICQRKPEEIRGG [T15Q]: the protein stability index was 3.31.

Regarding FQEAMTHLQHKLICWRKPEEIRGG [T15W], the protein stability index amounted to 2.31.

In the case of FQEAMTHLQHKLICNRKPEEIRGG [T15N], the protein stability index was determined as 2.79.

With FQEAMTHLQHKLICSRKPEEIRGG [T15S], the protein stability index is 2.92.

Take FQEAMTHLQHKLICVRKPEEIRGG [T15V]: the protein stability index turned out to be 2.94.

For FQEAMTHQQHKLICTRKPEEIRGG [L8Q], the protein stability index is 3.68.

For FQEAMTHVQHKLICTRKPEEIRGG [L8V], the protein stability index was 2.07.

As to FQEAMTHEQHKLICTRKPEEIRGG [L8E], the protein stability index was determined as 3.69.

Regarding FQEAMTHKQHKLICTRKPEEIRGG [L8K], the protein stability index stood at 2.29.

Take FQEAMTHMQHKLICTRKPEEIRGG [L8M]: the protein stability index was 3.24.

With FQEAMTHSQHKLICTRKPEEIRGG [L8S], the protein stability index came out at 3.62.

Take FQEAMTHIQHKLICTRKPEEIRGG [L8I]: the protein stability index was found to be 2.88.

Take FQEAMTHPQHKLICTRKPEEIRGG [L8P]: the protein stability index is 2.99.

For the variant FQEAMTHYQHKLICTRKPEEIRGG [L8Y], the protein stability index is 2.34.

For FQEAMMHLQHKLICTRKPEEIRGG [T6M], the protein stability index is 1.66.

Take FQEAMNHLQHKLICTRKPEEIRGG [T6N]: the protein stability index amounted to 2.11.

Regarding FQEAMYHLQHKLICTRKPEEIRGG [T6Y], the protein stability index came out at 1.54.

Regarding FQEAMHHLQHKLICTRKPEEIRGG [T6H], the protein stability index is 2.22.

With FQEAMPHLQHKLICTRKPEEIRGG [T6P], the protein stability index stood at 3.04.

As to FQEAMIHLQHKLICTRKPEEIRGG [T6I], the protein stability index came to 2.15.

On to FQEAMQHLQHKLICTRKPEEIRGG [T6Q], for which the protein stability index stood at 2.13.

FLEAMTHLQHKLICTRKPEEIRGG [Q2L]: the protein stability index was 2.32.

As for FAEAMTHLQHKLICTRKPEEIRGG [Q2A], the protein stability index turned out to be 2.91.

For the variant FKEAMTHLQHKLICTRKPEEIRGG [Q2K], the protein stability index was found to be 3.46.

Regarding FREAMTHLQHKLICTRKPEEIRGG [Q2R], the protein stability index was 4.08.

Consider FIEAMTHLQHKLICTRKPEEIRGG [Q2I], for which the protein stability index was 2.01.

As for FWEAMTHLQHKLICTRKPEEIRGG [Q2W], the protein stability index came to 1.67.

On to SQEAMTHLQHKLICTRKPEEIRGG [F1S], for which the protein stability index is 3.49.

On to LQEAMTHLQHKLICTRKPEEIRGG [F1L], for which the protein stability index was found to be 2.93.

Regarding MQEAMTHLQHKLICTRKPEEIRGG [F1M], the protein stability index turned out to be 3.67.

With PQEAMTHLQHKLICTRKPEEIRGG [F1P], the protein stability index came out at 4.01.

Take HQEAMTHLQHKLICTRKPEEIRGG [F1H]: the protein stability index turned out to be 4.3.

On to YQEAMTHLQHKLICTRKPEEIRGG [F1Y], for which the protein stability index came to 3.2.

In the case of FQEAMTHLQHKLICTRKPIEIRGG [E19I], the protein stability index amounted to 1.98.

On to FQEAMTHLQHKLICTRKPKEIRGG [E19K], for which the protein stability index turned out to be 2.67.

For the variant FQEAMTHLQHKLICTRKPCEIRGG [E19C], the protein stability index stood at 1.97.

Consider FQEAMTHLQHKLICTRKPLEIRGG [E19L], for which the protein stability index was found to be 2.26.

Consider FQEAMTHLQHKLICTRKPTEIRGG [E19T], for which the protein stability index amounted to 2.28.

Consider FQEAMTHLQHKLICTRKPNEIRGG [E19N], for which the protein stability index came out at 2.53.

Turning to FQEAMTHLQHKLICTRKPREIRGG [E19R], the protein stability index amounted to 1.42.

In the case of FQEAMTHLQHKLICTRKPMEIRGG [E19M], the protein stability index came out at 1.58.

For the variant FQEAMTHLQHKLICTRKPFEIRGG [E19F], the protein stability index is 2.09.

For FQEAMTHLQHKLICTRKPVEIRGG [E19V], the protein stability index turned out to be 2.01.

Consider FQEAMTHLQHKLICTRKPAEIRGG [E19A], for which the protein stability index was 2.79.

As for FQEAMTHLQHKLICTRKVEEIRGG [P18V], the protein stability index was found to be 2.54.

In the case of FQEAMTHLQHKLICTRKQEEIRGG [P18Q], the protein stability index worked out at 2.19.

For FQEAMTHLQHKLICTRKFEEIRGG [P18F], the protein stability index stood at 2.61.
